Test results as given in paper PMC8241838.

Biological target: trimeric fusion protein PA-sfGFP-tLM511, O15230;P07942;P11047
Assay: flow cytometry on cells
Conditions: 0.5 mM Mn2+; for response (arbitrary units/cell): 30 nM sfGFP-tLM511, parent: est. 3.0, read off a plot

Substance: human α6β1 integrin transiently expressed on Expi293F cells, wild type (from UniProt P05556) α6:E221A
- response (arbitrary units/cell): 2.1
- ratio to parent: 2.6

Substance: human α6β1 integrin transiently expressed on Expi293F cells, wild type (from UniProt P05556) α6:E219A
- ratio to parent: 10.7

Substance: human α6β1 integrin transiently expressed on Expi293F cells, wild type (from UniProt P05556) α6:D205A
- response (arbitrary units/cell): 1.4
- ratio to parent: 4.8
